To fix the notation:
T1: Human KLRF2 (human, UniProt D3W0D1 1-207)
T1 construct: also called hKLRF2
T1 sequence: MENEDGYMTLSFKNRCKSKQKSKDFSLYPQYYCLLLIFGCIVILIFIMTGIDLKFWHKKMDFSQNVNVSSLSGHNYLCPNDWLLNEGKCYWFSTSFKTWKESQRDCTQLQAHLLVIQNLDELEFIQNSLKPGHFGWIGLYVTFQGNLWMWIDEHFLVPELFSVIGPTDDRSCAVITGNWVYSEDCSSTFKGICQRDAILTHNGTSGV

T2: Human CD94 (human, UniProt Q13241 1-179)
T2 construct: also called hCD94
T2 sequence: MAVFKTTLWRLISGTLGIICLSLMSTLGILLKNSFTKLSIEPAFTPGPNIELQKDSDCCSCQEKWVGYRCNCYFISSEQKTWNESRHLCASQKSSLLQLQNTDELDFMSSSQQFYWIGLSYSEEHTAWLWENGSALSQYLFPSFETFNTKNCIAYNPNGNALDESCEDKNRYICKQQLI

T3: Human KLRG1 (human, UniProt Q96E93 1-195)
T3 construct: also called hKLRG1
T3 sequence: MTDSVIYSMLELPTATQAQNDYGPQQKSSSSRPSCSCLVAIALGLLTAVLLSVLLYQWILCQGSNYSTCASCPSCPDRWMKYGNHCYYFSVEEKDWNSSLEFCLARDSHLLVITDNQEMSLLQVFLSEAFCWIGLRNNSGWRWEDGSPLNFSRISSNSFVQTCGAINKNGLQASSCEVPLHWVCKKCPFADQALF

T4: Human Clec4E (human, UniProt Q9ULY5 1-219)
T4 construct: also called hClec4E
T4 sequence: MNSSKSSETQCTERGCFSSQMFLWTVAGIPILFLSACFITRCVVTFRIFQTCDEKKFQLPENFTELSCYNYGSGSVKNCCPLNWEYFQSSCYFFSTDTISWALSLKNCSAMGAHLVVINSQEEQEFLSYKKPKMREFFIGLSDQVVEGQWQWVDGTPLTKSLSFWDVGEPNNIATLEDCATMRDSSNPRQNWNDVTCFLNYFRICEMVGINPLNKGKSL

T5: Human Clec10A (human, UniProt Q8IUN9 1-316)
T5 construct: also called hClec10A
T5 sequence: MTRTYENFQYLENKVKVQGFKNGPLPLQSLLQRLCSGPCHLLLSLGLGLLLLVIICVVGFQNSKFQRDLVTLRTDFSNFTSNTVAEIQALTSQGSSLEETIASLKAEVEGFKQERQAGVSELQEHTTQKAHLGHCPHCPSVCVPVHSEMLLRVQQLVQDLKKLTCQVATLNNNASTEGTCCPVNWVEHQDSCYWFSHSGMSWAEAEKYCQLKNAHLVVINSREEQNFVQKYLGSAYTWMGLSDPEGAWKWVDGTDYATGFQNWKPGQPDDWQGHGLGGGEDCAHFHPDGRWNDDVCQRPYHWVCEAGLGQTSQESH

T6: Human Clec5A (human, UniProt Q9NY25 1-188)
T6 construct: also called hClec5A
T6 sequence: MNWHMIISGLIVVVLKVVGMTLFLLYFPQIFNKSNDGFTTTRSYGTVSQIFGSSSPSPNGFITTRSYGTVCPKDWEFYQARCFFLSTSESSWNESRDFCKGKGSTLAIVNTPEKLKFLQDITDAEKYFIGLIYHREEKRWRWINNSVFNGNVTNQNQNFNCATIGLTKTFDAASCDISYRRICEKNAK

T7: Human KLRF1 (human, UniProt Q9NZS2 1-231)
T7 construct: also called hKLRF1
T7 sequence: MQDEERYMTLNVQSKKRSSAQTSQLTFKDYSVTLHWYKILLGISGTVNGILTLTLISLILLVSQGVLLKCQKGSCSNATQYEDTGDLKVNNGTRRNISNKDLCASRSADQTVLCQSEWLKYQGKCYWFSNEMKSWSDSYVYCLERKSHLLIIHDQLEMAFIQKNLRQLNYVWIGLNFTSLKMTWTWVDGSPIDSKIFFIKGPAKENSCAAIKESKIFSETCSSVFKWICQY

T8: Human CD209 (human, UniProt Q9NNX6 1-404)
T8 construct: also called hCD209
T8 sequence: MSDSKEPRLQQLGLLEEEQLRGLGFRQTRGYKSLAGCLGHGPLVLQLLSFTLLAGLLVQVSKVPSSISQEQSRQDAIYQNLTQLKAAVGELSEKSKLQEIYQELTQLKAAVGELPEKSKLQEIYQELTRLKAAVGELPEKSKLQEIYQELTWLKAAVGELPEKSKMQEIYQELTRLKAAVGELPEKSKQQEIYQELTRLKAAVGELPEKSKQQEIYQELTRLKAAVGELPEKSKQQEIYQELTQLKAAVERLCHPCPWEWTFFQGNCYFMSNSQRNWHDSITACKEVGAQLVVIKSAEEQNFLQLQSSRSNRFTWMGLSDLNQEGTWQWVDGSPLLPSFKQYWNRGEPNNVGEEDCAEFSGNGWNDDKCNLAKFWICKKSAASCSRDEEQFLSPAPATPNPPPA

T9: Human Clec7A (human, UniProt Q9BXN2 1-247)
T9 construct: also called hClec7A
T9 sequence: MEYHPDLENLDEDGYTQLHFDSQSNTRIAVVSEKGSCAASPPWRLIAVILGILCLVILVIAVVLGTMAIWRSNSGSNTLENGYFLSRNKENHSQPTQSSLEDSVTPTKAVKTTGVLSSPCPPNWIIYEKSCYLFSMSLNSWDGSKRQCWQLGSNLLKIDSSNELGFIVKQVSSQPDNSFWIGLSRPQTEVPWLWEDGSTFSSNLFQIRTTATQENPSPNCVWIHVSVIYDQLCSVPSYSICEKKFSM

B1: KW1.2.1 (antibody, V domains shown)
VH: EVQLVESGGGLVQPGGSLRLSCAASGSTFSSYAMSWVRQAPGKGLEWVSTISGSGGSTYYADSVKGRFTISRDNSRNTLYLQMNSLRAEDTAVYYCARGGLIPSGFDYWGQGTLVTVSS
VL: DIQMTQSPSSPSASVGDRVTITCRASQSISSYLNWYQQKPGKAPKLLIYAASSLLSGVPSRFSGSGSGTDFTLTISSLQPEDFATYYCQQTYSTPLTFGQGTKVEIK
B2: KM12.2.3 (antibody, human IgG1, V domains shown)
VH: EVQLVESGGGLVQPGGSLRLSCAASGFTFSSYAMSWIRQAPGKGLEWVSAISGSGGSIYYADSVKGRFTISRDNSKNTLYLQMNSLRAEDTAVYYCARGYSDSYFYGPYYTFDYWGQGTLVTVSS
VL: B1 VL with P11L, S28G, L55Q, P59S, T91S, S93N
B3: KW7.3.7 (antibody, V domains shown)
VH: B1 VH with S27F, T50A, I51T, V64A, R76K, L101Y, I102L, S104D, G105A, Q111R
VL: B1 VL with P11L, R24W, K39E, L55Q
B4: KW1.3.12 (antibody, human IgG1, V domains shown)
VH: B1 VH with S27F
VL: B1 VL with P11L, T94A
B5: KW7.2.2 (antibody, V domains shown)
VH: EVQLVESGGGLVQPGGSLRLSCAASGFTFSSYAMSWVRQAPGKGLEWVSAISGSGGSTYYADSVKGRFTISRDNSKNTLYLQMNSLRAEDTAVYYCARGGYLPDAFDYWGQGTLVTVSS
VL: B1 VL with P11L, K45R, L46F, L55Q
B6: anti-CD161 KW17 (antibody, V domains shown)
VH: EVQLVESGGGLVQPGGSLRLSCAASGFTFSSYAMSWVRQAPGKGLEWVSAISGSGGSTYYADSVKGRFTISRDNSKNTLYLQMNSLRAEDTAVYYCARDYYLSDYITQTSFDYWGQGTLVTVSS
VL: QSVLTQPPSVSGAPGQRVTISCTGSSSNIGAGYDVHWYQQLPGTAPKLLIYGNSNRPSGVPDRFSGSKSGTSASLAITGLQAEDEADYYCQSYDSSHTVFGGGTQLTVL
notes: Human, lambda light chain; scFv-Fc or full IgG not clear; also called KW17-Fc

Numbering of substitutions follows the chain as printed.

For one assay, the target named is T1, Human KLRF2. Kind of assay: flow, Jurkat, 100 nM Ab.
For the molecule B1, the “MFI normalized to WT” value is 1.05.
Still for that read-out and setting: as for B2, the figure is 1.37.
On the same count and under the same terms, as for B3, the figure is 1.03; as for B4, 1.08.
Still for that read-out and setting: as for B5, the figure is 1.12.

The next assay has as its target T2, Human CD94. Kind of assay: flow, Jurkat, 100 nM Ab.
As to B1, the “MFI normalized to WT” value was found to be 1.13.
On the same count and under the same terms, with B2 the figure was 1.36.
With B3, the “MFI normalized to WT” value amounted to 1.01.
Still for that read-out and setting: as for B4, the figure is 1.07.
Same read-out and setting: with B5 the figure was 1.29.

The target of a further assay is T3, Human KLRG1. Kind of assay: flow, Jurkat, 100 nM Ab.
As to B1, the “MFI normalized to WT” value is 1.24.
Regarding B2, the “MFI normalized to WT” value came to 1.42.
On the same count and under the same terms, as for B3, the figure is 1.06; as for B4, 1.25; as for B5, 1.3.

In the next assay the target is T4, Human Clec4E. The experiment in a line: flow, Jurkat.
Take B1: the binding result was “no binding (tested: 100 nM)”.
The same measure, in the same setting: with B2 the entry was “no binding (tested: 100 nM)”; with B3, “no binding (tested: 100 nM)”; with B4, “no binding (tested: 100 nM)”.
On the same count and under the same terms, with B5 the entry was “no binding (tested: 100 nM)”.
Same read-out and setting: with B6 the entry was “no binding (tested: 100 nM)”.

The next assay deals with T5, Human Clec10A. Kind of assay: flow, Jurkat.
Regarding B1, the binding result was “no binding (tested: 100 nM)”.
The same measure, in the same setting: as for B2, the entry is “no binding (tested: 100 nM)”; as for B3, “no binding (tested: 100 nM)”.
Turning to B4, the binding result is “no binding (tested: 100 nM)”.
Take B5: the binding result was “no binding (tested: 100 nM)”.
In the case of B6, the binding result is listed as “no binding (tested: 100 nM)”.

Another assay addresses T6, Human Clec5A. Kind of assay: flow, Jurkat.
With B1, the binding result is reported as “no binding (tested: 100 nM)”.
Same read-out and setting: with B2 the entry was “no binding (tested: 100 nM)”; with B3, “no binding (tested: 100 nM)”; with B4, “no binding (tested: 100 nM)”.
Regarding B5, the binding result is on record as “no binding (tested: 100 nM)”.
Same read-out and setting: as for B6, the entry is “no binding (tested: 100 nM)”.

The target in another assay is T7, Human KLRF1. Kind of assay: flow, Jurkat.
As for B1, the binding result was “no binding (tested: 100 nM)”.
Still for that read-out and setting: with B2 the entry was “no binding (tested: 100 nM)”; with B3, “no binding (tested: 100 nM)”; with B4, “no binding (tested: 100 nM)”.
As for B5, the binding result is given as “no binding (tested: 100 nM)”.
On the same count and under the same terms, with B6 the entry was “no binding (tested: 100 nM)”.

A further assay deals with T10, Human Clec9A (human, UniProt Q6UXN8 1-241).
T10 construct: also called hClec9A
T10 sequence (Q6UXN8 whole entry): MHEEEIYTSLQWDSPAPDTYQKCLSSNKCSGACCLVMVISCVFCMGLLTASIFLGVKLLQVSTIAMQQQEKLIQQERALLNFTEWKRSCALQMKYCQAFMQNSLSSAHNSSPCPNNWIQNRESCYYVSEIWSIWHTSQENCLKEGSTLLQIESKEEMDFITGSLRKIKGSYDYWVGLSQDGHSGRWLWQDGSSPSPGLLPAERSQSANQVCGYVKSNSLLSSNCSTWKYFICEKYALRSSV
Kind of assay: flow, Jurkat.
Turning to B1, the binding result was “no binding (tested: 100 nM)”.
Same read-out and setting: with B2 the entry was “no binding (tested: 100 nM)”; with B3, “no binding (tested: 100 nM)”; with B4, “no binding (tested: 100 nM)”.
On the same count and under the same terms, with B5 the entry was “no binding (tested: 100 nM)”; with B6, “no binding (tested: 100 nM)”.

The target of another assay is T8, Human CD209. The experiment in a line: flow, Jurkat.
Turning to B1, the binding result is recorded as “no binding (tested: 100 nM)”.
Still for that read-out and setting: as for B2, the entry is “no binding (tested: 100 nM)”.
On the same count and under the same terms, with B3 the entry was “no binding (tested: 100 nM)”; with B4, “no binding (tested: 100 nM)”.
Same read-out and setting: with B5 the entry was “no binding (tested: 100 nM)”.
B6: the binding result is recorded as “no binding (tested: 100 nM)”.

A further assay addresses T2, Human CD94. Kind of assay: flow, Jurkat.
B1: the binding result is given as “no binding (tested: 100 nM)”.
Same read-out and setting: with B2 the entry was “no binding (tested: 100 nM)”; with B3, “no binding (tested: 100 nM)”; with B4, “no binding (tested: 100 nM)”.
Same read-out and setting: with B5 the entry was “no binding (tested: 100 nM)”; with B6, “no binding (tested: 100 nM)”.

A further assay addresses T3, Human KLRG1. The experiment in a line: flow, Jurkat.
In the case of B1, the binding result is “no binding (tested: 100 nM)”.
Still for that read-out and setting: as for B2, the entry is “no binding (tested: 100 nM)”.
For B3, the binding result is given as “no binding (tested: 100 nM)”.
Still for that read-out and setting: with B4 the entry was “no binding (tested: 100 nM)”; with B5, “no binding (tested: 100 nM)”; with B6, “no binding (tested: 100 nM)”.

The next assay has as its target T9, Human Clec7A. Kind of assay: flow, Jurkat.
B1: the binding result is reported as “no binding (tested: 100 nM)”.
For the molecule B2, the binding result is reported as “no binding (tested: 100 nM)”.
On the same count and under the same terms, with B3 the entry was “no binding (tested: 100 nM)”; with B4, “no binding (tested: 100 nM)”; with B5, “no binding (tested: 100 nM)”.
For the molecule B6, the binding result is on record as “no binding (tested: 100 nM)”.
